Here are results for two substances from patent US5834244.

Assay [1] addresses tissue factor-Factor VIIa complex (human Factor VIIa with recombinant human tissue factor 1-243) (human) (UniProt P08709). Description: chromogenic enzyme inhibition assay, FVIIa 10 nM, TF1-243 50 nM; apparent Ki* by fit to the tight-binding equation.
Assay [2] has as its target rabbit TF-FVIIa in the PT assay (rabbit thromboplastin with rabbit plasma) (rabbit).
The next assay concerns the target human Factor XIa (human) (UniProt P03951).
Assay [3] deals with human plasma kallikrein (human) (UniProt P03952).
For assay [4], the target named is tissue factor-Factor VIIa complex (human Factor VIIa with recombinant human tissue factor 1-243) (human) (UniProt P08709). Description: chromogenic enzyme inhibition assay under equilibrium conditions; apparent Ki*.
The target is the same in assay [5]. Description: apparent Ki* for TF-FVIIa; method not told at this place.

Consider “APPI, Alzheimer's amyloid β-protein precursor inhibitor”, for which the Ki came to 300 nM in assay [1] and 301 nM in assay [4]. Also, in assay [2], the fold increase of clotting time over baseline, PT assay in rabbit plasma (fold increase over baseline at 40 µM) is 1.4. In addition, the fold prolongation of clotting time, APTT assay in normal human plasma (fold prolongation at 40 µM inhibitor) (with human Factor XIa (human); in assay [3]) was 3.6 each time.

In the case of first Kunitz domain of TFPI, the Ki in assay [5] was determined as 600 nM.
